This experiment addresses human CD40 on cells (293.CD40 cells, Namalwa cells, human monocyte-derived dendritic cells) (human) (UniProt P25942). The experiment can be described thus: cell-based or functional assay.
UniProt P25942, sequence (P25942 21-277): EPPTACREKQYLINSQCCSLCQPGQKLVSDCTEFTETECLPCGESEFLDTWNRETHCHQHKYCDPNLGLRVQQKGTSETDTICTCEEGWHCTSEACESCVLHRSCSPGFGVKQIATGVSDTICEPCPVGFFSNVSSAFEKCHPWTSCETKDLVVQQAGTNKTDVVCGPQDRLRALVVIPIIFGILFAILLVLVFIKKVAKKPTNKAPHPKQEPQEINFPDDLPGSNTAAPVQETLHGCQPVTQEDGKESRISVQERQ

Substance “Fc-CD40L (TNF-like domain of human CD40 Ligand fused to the hinge region of the Fc domain of human IgG gamma 1) (from UniProt P29965 116-261) (Fc fusion)” yielded a reporter gene delivery to human monocyte-derived dendritic cells by Ad5.DR-LL-Cd complexed with the ligand, fold over Ad5.DR of 28 to 35 fold.
With “Fc-G28.5 (fusion of anti-CD40 single chain antibody G28.5 with the Fc domain of human immunoglobulin and a six-histidine sequence) (Fc fusion)”, the reporter gene delivery to human monocyte-derived dendritic cells by Ad5.DR-LL-Cd complexed with the ligand, fold over Ad5.DR fell in the range of 28 to 35 fold.

Source of the values: patent US20050003548A1.
